From doi:10.1101/2020.05.01.070730 (bioRxiv, 2020) come the findings set out here.

Common to all, as to test: native PAGE shift
Series [1] deals with T1, MutS R842E (Pseudomonas aeruginosa, UniProt Q9HY08 1-855, R842E).
T1 sequence: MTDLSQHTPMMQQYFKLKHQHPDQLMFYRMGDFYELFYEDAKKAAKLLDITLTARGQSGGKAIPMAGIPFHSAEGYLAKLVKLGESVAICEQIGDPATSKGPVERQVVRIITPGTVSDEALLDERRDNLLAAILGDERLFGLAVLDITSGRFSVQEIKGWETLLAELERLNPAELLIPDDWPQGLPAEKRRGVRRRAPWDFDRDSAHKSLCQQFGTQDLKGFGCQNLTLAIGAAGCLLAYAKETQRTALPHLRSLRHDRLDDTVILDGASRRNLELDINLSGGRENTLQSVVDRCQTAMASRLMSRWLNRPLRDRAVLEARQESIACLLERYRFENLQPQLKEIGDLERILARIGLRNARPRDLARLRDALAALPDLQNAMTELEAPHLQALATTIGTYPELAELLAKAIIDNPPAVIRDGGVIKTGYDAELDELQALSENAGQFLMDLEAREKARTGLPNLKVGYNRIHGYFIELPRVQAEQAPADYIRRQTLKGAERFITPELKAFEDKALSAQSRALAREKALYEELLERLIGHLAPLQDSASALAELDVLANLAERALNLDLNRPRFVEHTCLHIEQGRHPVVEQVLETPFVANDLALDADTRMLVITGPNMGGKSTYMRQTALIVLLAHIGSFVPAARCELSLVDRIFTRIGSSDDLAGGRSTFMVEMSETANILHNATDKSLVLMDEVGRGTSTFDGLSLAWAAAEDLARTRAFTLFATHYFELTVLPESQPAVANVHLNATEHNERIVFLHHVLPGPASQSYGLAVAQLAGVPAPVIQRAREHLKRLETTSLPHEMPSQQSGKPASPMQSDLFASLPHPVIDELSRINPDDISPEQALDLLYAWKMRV

In series [2] the target is T2, MutS (Pseudomonas aeruginosa, UniProt Q9HY08 1-855).
T2 sequence: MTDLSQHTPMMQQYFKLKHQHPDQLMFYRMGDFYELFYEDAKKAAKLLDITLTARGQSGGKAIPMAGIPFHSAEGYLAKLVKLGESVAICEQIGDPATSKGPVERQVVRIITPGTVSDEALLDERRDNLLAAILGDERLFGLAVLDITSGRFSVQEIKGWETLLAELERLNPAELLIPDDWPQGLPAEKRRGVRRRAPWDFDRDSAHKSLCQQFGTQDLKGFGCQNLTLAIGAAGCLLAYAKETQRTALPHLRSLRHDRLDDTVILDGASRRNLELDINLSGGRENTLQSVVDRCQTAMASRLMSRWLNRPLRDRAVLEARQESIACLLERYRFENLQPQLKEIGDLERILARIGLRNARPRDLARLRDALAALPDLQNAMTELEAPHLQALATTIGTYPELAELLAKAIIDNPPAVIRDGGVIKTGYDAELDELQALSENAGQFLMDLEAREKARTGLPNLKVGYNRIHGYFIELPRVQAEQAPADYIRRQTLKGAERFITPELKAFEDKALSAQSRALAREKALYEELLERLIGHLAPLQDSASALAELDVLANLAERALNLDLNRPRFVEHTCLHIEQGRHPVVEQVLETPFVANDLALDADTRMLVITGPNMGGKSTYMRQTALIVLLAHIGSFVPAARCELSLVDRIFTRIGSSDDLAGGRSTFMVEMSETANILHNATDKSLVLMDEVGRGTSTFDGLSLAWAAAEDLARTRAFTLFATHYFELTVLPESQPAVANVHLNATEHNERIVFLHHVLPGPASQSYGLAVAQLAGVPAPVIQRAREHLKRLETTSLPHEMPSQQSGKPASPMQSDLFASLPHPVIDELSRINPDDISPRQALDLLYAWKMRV

Series [3] addresses T2, MutS. The source holds these as a separate data set.
Series [4] concerns the target T1, MutS R842E. The source holds these as a separate data set.
For series [5], the target named is T2, MutS. This is another data set of the same source.
The target of series [6] is T2, MutS. The source holds these as a separate data set.

Like-named read-outs stand apart in the source and are kept apart here.

B1: GT-pDNA 13 nt (dsDNA)
DNA 1: ATGTGAATCAGTATGGTTGCTATCTGCTGAAG
DNA 2: ATTTCCTTCAGCAGATAGTAACCATACTGATTCACAT
Turning to B1, the binding result in the series with MutS R842E [1] and with MutS [2] was “binds” throughout.

B2: TT-pDNA (dsDNA)
DNA 1: ATGTGAATCAGTATGGTTTCTATCTGC
DNA 2: ATTTCCTTCAGCAGATAGTAACCATACTGATTCACAT
B2: the binding result with MutS [3] and with MutS R842E [4] was “binds” each time.

B3: TC-pDNA (dsDNA)
DNA 1: ATGTGAATCAGTATGGTTTCTATCTGC
DNA 2: ATTTCCTTCAGCAGATAGCAACCATACTGATTCACAT
As for B3, the binding result in the series with MutS [2] and with MutS R842E [4] was “binds” throughout.

B4: CC-pDNA (dsDNA)
DNA 1: ATGTGAATCAGTATGGTTCCTATCTGC
DNA 2: ATTTCCTTCAGCAGATAGCAACCATACTGATTCACAT
Turning to B4, the binding result with MutS [2] and in the series with MutS R842E [4] was “binds” throughout.

B5: GG-pDNA (dsDNA)
DNA 1: ATGTGAATCAGTATGGTTGCTATCTGC
DNA 2: ATTTCCTTCAGCAGATAGGAACCATACTGATTCACAT
Take B5: the binding result in the series with MutS [2] and with MutS R842E [4] was “binds” throughout.

B6: GA-pDNA (dsDNA)
DNA 1: ATGTGAATCAGTATGGTTGCTATCTGC
DNA 2: ATTTCCTTCAGCAGATAGAAACCATACTGATTCACAT
For the molecule B6, the binding result with MutS [2] and in the series with MutS R842E [4] was “binds” each time.

B7: CA-pDNA (dsDNA)
DNA 1: ATGTGAATCAGTATGGTTCCTATCTGC
DNA 2: ATTTCCTTCAGCAGATAGAAACCATACTGATTCACAT
With B7, the binding result with MutS [3] is “binds”.

B8: CT-pDNA (dsDNA)
DNA 1: ATGTGAATCAGTATGGTTCCTATCTGC
DNA 2: ATTTCCTTCAGCAGATAGTAACCATACTGATTCACAT
Consider B8, for which the binding result with MutS [5] and with MutS R842E [4] was “binds” each time.

B9: TG-pDNA (dsDNA)
DNA 1: ATGTGAATCAGTATGGTTTCTATCTGC
DNA 2: ATTTCCTTCAGCAGATAGGAACCATACTGATTCACAT
On to B9, for which the binding result with MutS [3] and with MutS R842E [4] was “binds” throughout.

B10: AC-pDNA (dsDNA)
DNA 1: ATGTGAATCAGTATGGTTACTATCTGC
DNA 2: ATTTCCTTCAGCAGATAGCAACCATACTGATTCACAT
As for B10, the binding result in the series with MutS [6] and in the series with MutS R842E [4] was “binds” in each case.
